Columns and labels:
ALS = assay: Serum ALS levels in cynomolgus monkeys after a single antibody dose; format: in vivo, cynomolgus monkey; details: for serum ALS levels decreased to about: by 96 hours; for serum ALS decrease below control: by 72 hours
Method: (§1) To determine if GHR antagonist monoclonal antibodies can affect IGF-1, IGFBP-3, and ALS levels in vivo by inhibiting the function of GHR, the effect of humanized anti-human GHR antibody SS1 was tested in cynomolgus monkeys. A dose-response study was conducted to test for changes in IGF-1, IGFBP-3, and ALS levels following a single dose of SS1. Eight naïve female cynomolgus monkeys were injected intravenously with a single dose of SS1 or negative control human IgG2, in 1×PBS 0.01% Tween™ 20. Two monkeys were dosed with 30 mg/kg SS1, two were dosed with 10 mg/kg SS1, two were dosed with 3 mg/kg SS1, and two were dosed with 30 mg/kg negative control human IgG2Δa on Day 1. […] Serum was also taken from the 30 mg/kg SS1 and negative control treated animals at 864 h post-dose.
Serum samples were analyzed for changes in ALS levels compared to baseline using a BioVendor™ Human ALS ELISA kit (cat. #RMEE35R).
Six naïve female cynomolgus monkeys were injected either intravenously or subcutaneously with a single dose of […] or negative control human IgG2Δa in 1×PBS 0.01% Tween™ 20. Two monkeys were dosed with 3 mg/kg SS1 intravenously, two were dosed with 3 mg/kg SS1 subcutaneously, and two were dosed with 3 mg/kg negative control human IgG2Δa subcutaneously on Day 1. Serum samples were taken from all animals at the following timepoints: pre-dose, 24 h, 72 h, 120 h, 168 h, 216 h, 264 h, 312 h, 360 h, 408 h, 456 h and 504 h.

IGFBP-3 = assay: Serum IGFBP-3 levels in cynomolgus monkeys after a single antibody dose; format: in vivo, cynomolgus monkey; details: for serum IGFBP-3 levels (% change from baseline) / serum IGFBP-3 decrease below baseline: cynomolgus monkeys
Method: as §1
Serum samples were analyzed for changes in IGFBP-3 levels compared to baseline using an R&D Systems™ Quantikine™ human IGFBP-3 immunoassay kit (cat. #DGB300).

[1] = single IV dose 3, 10 or 30 mg/kg

B1: SS1: humanized GHR antagonist antibody; VL SEQ ID NO: 7, VH SEQ ID NO: 8; hIgG2Δa heavy chain SEQ ID NO: 134, light chain SEQ ID NO: 135 (antibody)
heavy: EVQLVESGGGLVKPGGSLRLSCAASGFTFSDAWMDWVRQAPGKGLEWVAEIRSKANYHATYYAESVKGRFTISRDDSKNTLYLQMNSLKTEDTAVYYCTLIRDYWGQGTLVTVSSASTKGPSVFPLAPCSRSTSESTAALGCLVKDYFPEPVTVSWNSGALTSGVHTFPAVLQSSGLYSLSSVVTVPSSNFGTQTYTCNVDHKPSNTKVDKTVERKCCVECPPCPAPPVAGPSVFLFPPKPKDTLMISRTPEVTCVVVDVSHEDPEVQFNWYVDGVEVHNAKTKPREEQFNSTFRVVSVLTVVHQDWLNGKEYKCKVSNKGLPSSIEKTISKTKGQPREPQVYTLPPSREEMTKNQVSLTCLVKGFYPSDIAVEWESNGQPENNYKTTPPMLDSDGSFFLYSKLTVDKSRWQQGNVFSCSVMHEALHNHYTQKSLSLSPGK
light: EIVLTQSPGTLSLSPGERATLSCTATSSVSSSYLNWYQQKPGQAPRLLIYSTSNLASGIPDRFSGSGSGTDFTLTISRLEPEDFAVYYCHQYHRSTPTFGGGTKVEIKRTVAAPSVFIFPPSDEQLKSGTASVVCLLNNFYPREAKVQWKVDNALQSGNSQESVTEQDSKDSTYSLSSTLTLSKADYEKHKVYACEVTHQGLSSPVTKSFNRGEC
modifications: Humanized and/or affinity matured antibody sequence
- serum ALS levels decreased to about (ALS; cynomolgus monkeys, SS1 3 mg/kg IV single dose): about 51%
- serum ALS levels decreased to about (ALS; cynomolgus monkeys, SS1 10 mg/kg IV single dose): ~24%
- serum ALS levels decreased to about (ALS; cynomolgus monkeys, SS1 30 mg/kg IV single dose): ~49%
- time by which serum ALS levels returned to baseline levels (ALS; cynomolgus monkeys, single dose 3 mg/kg SS1 SQ or IV): ≤ 312 h
- serum ALS decrease below control (ALS; cynomolgus monkeys, single dose 3 mg/kg SS1 intravenous (IV)): about 31%
- serum ALS decrease below control (ALS; cynomolgus monkeys, single dose 3 mg/kg SS1 subcutaneous (SQ)): about 43%
- effect on serum ALS levels in cynomolgus monkey (ALS; [1]): reduces serum ALS levels
- serum IGFBP-3 levels (% change from baseline) (IGFBP-3; SS1 3 mg/kg IV single dose, 24 h post-injection): −18.75 +/− 1.25%
- serum IGFBP-3 levels (% change from baseline) (IGFBP-3; SS1 3 mg/kg IV single dose, 48 h post-injection): −22.8 +/− 3.8%
- serum IGFBP-3 levels (% change from baseline) (IGFBP-3; SS1 3 mg/kg IV single dose, 72 h post-injection): −36.45 +/− 6.65%
- serum IGFBP-3 levels (% change from baseline) (IGFBP-3; SS1 3 mg/kg IV single dose, 96 h post-injection): −37.35 +/− 5.05%
- serum IGFBP-3 levels (% change from baseline) (IGFBP-3; SS1 3 mg/kg IV single dose, 120 h post-injection): −38.25 +/− 4.85%
- serum IGFBP-3 levels (% change from baseline) (IGFBP-3; SS1 3 mg/kg IV single dose, 144 h post-injection): −46.8 +/− 0.6%
- serum IGFBP-3 levels (% change from baseline) (IGFBP-3; SS1 3 mg/kg IV single dose, 192 h post-injection): −32.55 +/− 1.35%
- serum IGFBP-3 levels (% change from baseline) (IGFBP-3; SS1 3 mg/kg IV single dose, 312 h post-injection): 22.4 +/− 1.9%
- serum IGFBP-3 levels (% change from baseline) (IGFBP-3; SS1 3 mg/kg IV single dose, 336 h post-injection): 28.15 +/− 12.25%
- serum IGFBP-3 decrease below baseline (IGFBP-3; SS1 3 mg/kg IV single dose, by 72 hours): about 36%
- serum IGFBP-3 decrease below baseline (IGFBP-3; SS1 3 mg/kg IV single dose, by 144 hours): about 47%
- serum IGFBP-3 levels (% change from baseline) (IGFBP-3; SS1 10 mg/kg IV single dose, 24 h post-injection): −23.95 +/− 3.35%
- serum IGFBP-3 levels (% change from baseline) (IGFBP-3; SS1 10 mg/kg IV single dose, 48 h post-injection): −28.4 +/− 2.9%
- serum IGFBP-3 levels (% change from baseline) (IGFBP-3; SS1 10 mg/kg IV single dose, 72 h post-injection): −37.9 +/− 2.4%
- serum IGFBP-3 levels (% change from baseline) (IGFBP-3; SS1 10 mg/kg IV single dose, 96 h post-injection): −40.95 +/− 0.35%
- serum IGFBP-3 levels (% change from baseline) (IGFBP-3; SS1 10 mg/kg IV single dose, 120 h post-injection): −46.4 +/− 1.1%
- serum IGFBP-3 levels (% change from baseline) (IGFBP-3; SS1 10 mg/kg IV single dose, 144 h post-injection): −51.05 +/− 8.85%
- serum IGFBP-3 levels (% change from baseline) (IGFBP-3; SS1 10 mg/kg IV single dose, 192 h post-injection): −45.95 +/− 6.35%
- serum IGFBP-3 levels (% change from baseline) (IGFBP-3; SS1 10 mg/kg IV single dose, 312 h post-injection): −38.7 +/− 9.6%
- serum IGFBP-3 levels (% change from baseline) (IGFBP-3; SS1 10 mg/kg IV single dose, 336 h post-injection): −42.25 +/− 1.85%
- serum IGFBP-3 decrease below baseline (IGFBP-3; SS1 10 mg/kg IV single dose, by 72 hours): ~38%
- serum IGFBP-3 decrease below baseline (IGFBP-3; SS1 10 mg/kg IV single dose, by 144 hours): ~51%
- serum IGFBP-3 levels (% change from baseline) (IGFBP-3; SS1 30 mg/kg IV single dose, 24 h post-injection): −10.6 +/− 4.6%
- serum IGFBP-3 levels (% change from baseline) (IGFBP-3; SS1 30 mg/kg IV single dose, 48 h post-injection): −15.75 +/− 9.35%
- serum IGFBP-3 levels (% change from baseline) (IGFBP-3; SS1 30 mg/kg IV single dose, 72 h post-injection): −22.95 +/− 16.15%
- serum IGFBP-3 levels (% change from baseline) (IGFBP-3; SS1 30 mg/kg IV single dose, 96 h post-injection): −29.4 +/− 13.9%
- serum IGFBP-3 levels (% change from baseline) (IGFBP-3; SS1 30 mg/kg IV single dose, 120 h post-injection): −38.15 +/− 9.45%
- serum IGFBP-3 levels (% change from baseline) (IGFBP-3; SS1 30 mg/kg IV single dose, 144 h post-injection): −45.7 +/− 11.9%
- serum IGFBP-3 levels (% change from baseline) (IGFBP-3; SS1 30 mg/kg IV single dose, 192 h post-injection): −31.05 +/− 16.05%
- serum IGFBP-3 levels (% change from baseline) (IGFBP-3; SS1 30 mg/kg IV single dose, 312 h post-injection): −40.65 +/− 5.05%
- serum IGFBP-3 levels (% change from baseline) (IGFBP-3; SS1 30 mg/kg IV single dose, 336 h post-injection): −39.45 +/− 0.85%
- serum IGFBP-3 decrease below baseline (IGFBP-3; SS1 30 mg/kg IV single dose, by 72 hours): ~23%
- serum IGFBP-3 decrease below baseline (IGFBP-3; SS1 30 mg/kg IV single dose, by 144 hours): ~46%
- effect on serum IGFBP-3 levels in cynomolgus monkey (IGFBP-3; [1]): dose dependently reduces serum IGFBP-3 levels

Source: US9249224B2 (RINAT NEUROSCIENCE CORP., priority 2011, dated 2016)
